Experiment [1] deals with FCɣR IIA (CD32a) (human) (UniProt P12318). In words: SPR. On the technique in general: In SPR one partner is held on a chip, and binding of the other changes the refractive index at the surface.
Experiment [2] has as its target FCɣR IA (CD64) (human) (UniProt P12314). The experiment in a line: SPR.
Experiment [3] has as its target HER3 on the surface of human cancer cell lines (HCT116, DU145, H358, T-47D, OVCAR8) (UniProt P21860). In words: flow cytometry; OVCAR8 cells. (In general: In flow cytometry, cells or beads pass a laser one at a time.)
For experiment [4] the target is unchanged. In words: flow cytometry; H358 cells.
Experiment [5] shares this target. In words: flow cytometry; HCT116 cells.
Experiment [6] has the same target. In words: flow cytometry; DU145 cells.

FCɣR IIA (CD32a) (human), sequence (P12318 34-217): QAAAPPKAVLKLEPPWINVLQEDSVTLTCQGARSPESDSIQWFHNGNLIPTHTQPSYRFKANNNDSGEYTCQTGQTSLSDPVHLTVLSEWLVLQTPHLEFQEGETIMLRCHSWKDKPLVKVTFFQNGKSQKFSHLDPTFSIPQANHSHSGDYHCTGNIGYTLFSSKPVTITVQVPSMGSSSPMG
FCɣR IA (CD64) (human), sequence (P12314 16-288): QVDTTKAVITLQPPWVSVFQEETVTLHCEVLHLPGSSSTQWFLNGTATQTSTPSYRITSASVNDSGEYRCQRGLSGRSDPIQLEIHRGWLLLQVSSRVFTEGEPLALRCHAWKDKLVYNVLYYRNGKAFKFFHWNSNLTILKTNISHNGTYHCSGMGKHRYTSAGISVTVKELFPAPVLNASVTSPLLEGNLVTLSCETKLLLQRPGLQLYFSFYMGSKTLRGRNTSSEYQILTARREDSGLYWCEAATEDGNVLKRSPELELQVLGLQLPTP

The Kd is the equilibrium constant for the complex coming apart. High values mean a looser complex, low ones a tighter complex. For Human IgG1 (+ve control), the figures for the Kd in experiment [1] and in experiment [2] were 56.9 nM and 6.5 nM, respectively.

One may read the EC50 as the concentration that produces a half-maximal response. Lower therefore signals greater potency. As to Patritumab-DXd, the EC50 in experiment [3] is 1.01 nM; in experiment [4] it was 8.23 nM; in experiment [5], 0.756 nM; in experiment [6], 2.4 nM.

For the origin of these results see patent US20240238439A1, “HER3-BINDING ANTIBODY-DRUG CONJUGATE” (priority 2023, published 2024).
